Measured values from US20250018040A1 (UNITED STATES OF AMERICA AS REPRESENTED BY THE SECRETARY …, published 2025).

What was measured:
[1] = target: T1, full length Fc-mesothelin (UniProt Q13421 296-598, limits assumed); experiment: flow cytometry: Fc-mesothelin bound to 293T cells transfected with the CAR vector, detected with fluorescent anti-Fc antibody (column: Expressed by 293T cells?)
T1 construct: it is written here as in the name; also called Fc-MSLN; full length mesothelin attached to an Fc protein; not shown: Fc protein
T1 sequence (Q13421 other isoform, or with tags, fused parts or gaps limits assumed): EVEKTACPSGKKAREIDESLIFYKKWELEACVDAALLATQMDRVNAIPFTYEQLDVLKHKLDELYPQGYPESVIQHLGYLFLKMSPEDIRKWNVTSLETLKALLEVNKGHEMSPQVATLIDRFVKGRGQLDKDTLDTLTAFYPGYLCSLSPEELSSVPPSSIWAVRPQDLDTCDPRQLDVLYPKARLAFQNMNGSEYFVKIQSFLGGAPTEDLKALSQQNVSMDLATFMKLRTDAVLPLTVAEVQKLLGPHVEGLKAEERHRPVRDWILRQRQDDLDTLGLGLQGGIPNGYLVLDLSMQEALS
Procedure: 293T cells were independently transduced with the CAR-T vectors. Expression of each Fv by the 293T cells was tested. The CAR-T vectors were transfected into 293T cells. After two days of culture, Fc-mesothelin was bound to the cells. The bound Fc protein was detected by a secondary anti-Fc-antibody conjugated to a fluorescent dye using flow cytometry.

shed mesothelin = target: T2, shed mesothelin (UniProt Q13421 296-585, limits assumed); experiment: Western blot of OVCAR-8 growth medium
T2 construct: also called Shed MSLN; mesothelin shed by OVCAR-8 cells
T2 sequence (Q13421 other isoform, or with tags, fused parts or gaps limits assumed): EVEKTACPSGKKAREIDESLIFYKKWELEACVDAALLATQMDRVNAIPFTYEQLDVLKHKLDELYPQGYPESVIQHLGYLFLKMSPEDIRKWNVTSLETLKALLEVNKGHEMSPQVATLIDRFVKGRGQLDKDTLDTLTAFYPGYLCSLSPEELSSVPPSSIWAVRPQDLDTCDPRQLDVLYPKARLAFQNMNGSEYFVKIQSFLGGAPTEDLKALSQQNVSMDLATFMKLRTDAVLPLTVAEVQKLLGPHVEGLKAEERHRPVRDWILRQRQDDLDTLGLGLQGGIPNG
Procedure: (§1) A Western blot assay was carried out to test the ability of mAb 15B6 or control mAb MN to bind to full length Fc-mesothelin and shed mesothelin, which had been shed by OVCAR-8 cells. Equal amounts of OVCAR-8 cell growth media were collected. The proteins were resolved by SDS gel electrophoresis. The bands were detected by Western blot using the antibodies MN and/or 15B6. Full length mesothelin attached to an Fc protein was used as positive control and reacts with both antibodies.

[2] = target: T1, full length Fc-mesothelin; experiment: Western blot
Procedure: as §1

Row | binding result [1] | binding result (shed mesothelin) | binding result [2] | Binder
1 | binds |  |  | CAR Construct No. 2, 15B6 scFv (Vh-lin-Vl) (other, Chimeric antigen receptor on 293T cells or T cells) MEVQLQQSGPVLVKPGASVKISCKASGYSFTGYYMHWVRQSLVKRLEWIGRINPYTGVPSYKHNFKDKASLTVDKSSSTAYMELHSLTSEDSAVYYCARELGGYWGQGTTLTVSSGGGGSGGGGSGGGGSQAVVTQESALTTSPGETVTLTCRSSTGAVTTGNYPNWVQEKPDHLFTGLIAGTNNRAPGVPARFSGSLIGDKAALTITGAQTEDEAIYFCALWFSSHWVFGGGTKLTVLTSTTTPAPRPPTPAPTIASQPLSLRPEACRPAAGGAVHTRGLDFACDIYIWAPLAGTCGVLLLSLVITKRGRKKLLYIFKQPFMRPVQTTQEEDGCSCRFPEEEEGGCELRVKFSRSADAPAYQQGQNQLYNELNLGRREEYDVLDKRRGRDPEMGGKPRRKNPQEGLYNELQKDKMAEAYSEIGMKGERRRGKGHDGLYQGLSTATKDTYDALHMQALPPR
2 |  | no binding | binds | mAb 15B6 (antibody, mouse IgG2b, V domains shown, Murine IgG2b; For flow cytometry it was conjugated to ALEXA FLUOR 647; also called monoclonal antibody 15B6; 15B6 (IgG2b)) VH: EVQLQQSGPVLVKPGASVKISCKASGYSFTGYYMHWVRQSLVKRLEWIGRINPYTGVPSYKHNFKDKASLTVDKSSSTAYMELHSLTSEDSAVYYCARELGGYWGQGTTLTVSS VL: QAVVTQESALTTSPGETVTLTCRSSTGAVTTGNYPNWVQEKPDHLFTGLIAGTNNRAPGVPARFSGSLIGDKAALTITGAQTEDEAIYFCALWFSSHWVFGGGTKLTVL
